Experimental data reported in paper PMC8219380, “The discriminatory power of the T cell receptor” (eLife, 2021).
“And” between values parts separate entries of the source, which are not always exact repeats. Equal entries are not always repeated. Each block holds one substance with its values, some of them ahead of it.

What was measured:
[1] = molecular target: 1G4 TCR; assay: SPR, 1G4 TCR binding to immobilised pMHC (steady state, 37°C); set-up: species or system human; settings: Bmax fitted, read-out: KD (standard protocol)
[2] = molecular target: NY-ESO-1 (NYE 9V: heteroclitic variant of the wild-type NYE-ESO 157–165 9C peptide) peptide on HLA-A*02:01 (human); assay: SPR at 37°C (Biacore T200), soluble 1G4 injected over immobilised biotinylated pMHC; standard method with fitted Bmax; Figure 1A–C left column, which the legend names NYE 9V; soluble, other
[3] = molecular target: NY-ESO-1 (peptide variant NYE 5F) peptide on HLA-A*02:01 (human); assay: SPR at 37°C, new method with Bmax constrained by the W6/32 standard curve; soluble, other
[4] = molecular target: Tax 5F peptide on HLA-A*02:01 (human | HTLV-1); assay: SPR; 37°C
[5] = molecular target: Tax 7H peptide on HLA-A*02:01 (human | HTLV-1); assay: SPR
[6] = molecular target: Tax 1A peptide on HLA-A*02:01 (human | HTLV-1); assay: SPR
[7] = molecular target: Tax 8A peptide on HLA-A*02:01 (human | HTLV-1); assay: SPR
[8] = molecular target: Tax 5W peptide on HLA-A*02:01 (human | HTLV-1); assay: SPR
[9] = molecular target: Tax 5H peptide on HLA-A*02:01 (human | HTLV-1); assay: SPR
[10] = molecular target: Tax 4A peptide on HLA-A*02:01 (human | HTLV-1); assay: SPR
[11] = molecular target: Tax 6V peptide on HLA-A*02:01 (human | HTLV-1); assay: SPR
[12] = molecular target: Tax 4A8A peptide on HLA-A*02:01 (human | HTLV-1); assay: SPR
[13] = molecular target: Tax 5H8A peptide on HLA-A*02:01 (human | HTLV-1); assay: SPR
[14] = molecular target: Tax 8F peptide on HLA-A*02:01 (human | HTLV-1); assay: SPR
[15] = molecular target: Tax 7T peptide on HLA-A*02:01 (human | HTLV-1); assay: SPR
[16] = molecular target: Tax 7R peptide on HLA-A*02:01 (human | HTLV-1); assay: SPR
[17] = molecular target: Tax 1V peptide on HLA-A*02:01 (human | HTLV-1); assay: SPR
[18] = molecular target: Tax 5F peptide on HLA-A*02:01 (human | HTLV-1); assay: SPR
[19] = molecular target: NYE 9V peptide on HLA-A*02:01; assay: SPR; Bmax fitted, 37°C
[20] = molecular target: NYE 5F peptide on HLA-A*02:01; assay: SPR; Bmax fitted, 37°C
[21] = molecular target: NYE 9V peptide on HLA-A*02:01; assay: SPR; Bmax constrained, 37°C
[22] = molecular target: NYE 5F peptide on HLA-A*02:01; assay: SPR; Bmax constrained, 37°C
[23] = molecular target: NYE 5F peptide on HLA-A*02:01; assay: SPR; 37°C
[24] = molecular target: NYE 6T peptide on HLA-A*02:01; assay: SPR
[25] = molecular target: NYE 4A peptide on HLA-A*02:01; assay: SPR
[26] = molecular target: NYE 9V peptide on HLA-A*02:01; assay: SPR
[27] = molecular target: NYE 9V peptide on HLA-A*02:01 (pMHC); assay: SPR
[28] = molecular target: NYE 3A peptide on HLA-A*02:01; assay: SPR
[29] = molecular target: NYE 3Y peptide on HLA-A*02:01; assay: SPR
[30] = molecular target: NYE 5F peptide on HLA-A*02:01; assay: SPR
[31] = molecular target: NYE 5Y peptide on HLA-A*02:01; assay: SPR

Kd [1]: ~7 µM
Substance: NY-ESO-1 peptide: cognate NY-ESO-1 peptide of the 1G4 TCR

Kd [2]: 7 µM | Kd [3]: 1310 µM
Substance: 1G4 TCR

Substance: soluble A6 αβ TCR
Kd [4]: 3 µM | Kd [5]: 45.8 µM and 67.8 µM | Kd [6]: 4.25 µM and 6.5 µM | Kd [7]: 599 µM and 565 µM | Kd [8]: 6.08 µM and 5 µM | Kd [9]: 36.2 µM and 56.1 µM | Kd [10]: 72.5 µM and 118 µM | Kd [11]: 13.5 µM and 21.1 µM | Kd [12]: 194 µM and 1870 µM | Kd [13]: 2820 µM and 2320 µM | Kd [14]: 37.1 µM and 60 µM | Kd [15]: 3.42 µM and 2.8 µM | Kd [16]: 11.5 µM and 21.4 µM | Kd [17]: 6.92 µM and 7.97 µM | Kd [18]: 3.36 µM and 2.67 µM

Kd [19]: 6.8 µM | Kd [20]: 198 µM | Kd [21]: 4.6 µM | Kd [22]: 1590 µM | Kd [23]: 1310 µM | Kd ([24]; Bmax constrained (new method)): 162 µM | Kd ([24]; Bmax fitted (standard method)): 84.6 µM | Kd ([25]; Bmax constrained (new method)): 299 µM | Kd ([25]; Bmax fitted (standard method)): 157 µM | Kd ([26]; Bmax constrained (new method)): 4.93 µM | Kd ([26]; Bmax fitted (standard method)): 7.97 µM | Kd [27]: 7 µM | Kd ([28]; Bmax constrained (new method)): 6.28 µM | Kd ([28]; Bmax fitted (standard method)): 7.04 µM | Kd ([29]; Bmax constrained (new method)): 47.3 µM | Kd ([29]; Bmax fitted (standard method)): 36.3 µM | Kd [30]: 756 µM | Kd ([31]; Bmax constrained (new method)): 433 µM | Kd ([31]; Bmax fitted (standard method)): 191 µM
Substance: soluble 1G4 αβ TCR
